Data taken from publication PMC2132731 (The Journal of Cell Biology, 1998).
“And” between values parts separate entries of the source, which are not always exact repeats. Equal entries are not always repeated. One block for each molecule: values may come before it.

What was measured:
[1] = target: GST-yAP180A C5 (S. cerevisiae); test: pull-down
Pan1p EH1–2 (96–713) = target: T1, Pan1p EH1–2 (96–713) (S. cerevisiae, UniProt P32521 96-713); test: two-hybrid
T1 sequence (looked up): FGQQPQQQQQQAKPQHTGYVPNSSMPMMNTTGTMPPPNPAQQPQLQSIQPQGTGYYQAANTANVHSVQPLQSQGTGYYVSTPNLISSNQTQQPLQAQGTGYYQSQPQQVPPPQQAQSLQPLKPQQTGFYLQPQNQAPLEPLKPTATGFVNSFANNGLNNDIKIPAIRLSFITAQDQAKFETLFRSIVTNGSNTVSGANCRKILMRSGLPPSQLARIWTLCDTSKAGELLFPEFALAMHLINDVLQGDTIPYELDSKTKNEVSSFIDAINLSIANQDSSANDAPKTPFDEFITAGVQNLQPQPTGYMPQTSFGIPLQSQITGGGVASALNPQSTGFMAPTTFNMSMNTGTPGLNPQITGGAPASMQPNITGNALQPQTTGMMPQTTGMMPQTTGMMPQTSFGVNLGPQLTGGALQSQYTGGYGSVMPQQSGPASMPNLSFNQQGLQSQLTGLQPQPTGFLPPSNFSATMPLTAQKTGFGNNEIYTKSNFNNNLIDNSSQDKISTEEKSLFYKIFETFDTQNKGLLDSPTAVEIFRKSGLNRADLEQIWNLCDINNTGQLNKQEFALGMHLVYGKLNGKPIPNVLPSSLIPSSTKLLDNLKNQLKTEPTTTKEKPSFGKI

Pan1p EH1 (96–403) = target: T2, Pan1p EH1 (96–403) (S. cerevisiae, UniProt P32521 96-403); test: two-hybrid
T2 sequence (looked up): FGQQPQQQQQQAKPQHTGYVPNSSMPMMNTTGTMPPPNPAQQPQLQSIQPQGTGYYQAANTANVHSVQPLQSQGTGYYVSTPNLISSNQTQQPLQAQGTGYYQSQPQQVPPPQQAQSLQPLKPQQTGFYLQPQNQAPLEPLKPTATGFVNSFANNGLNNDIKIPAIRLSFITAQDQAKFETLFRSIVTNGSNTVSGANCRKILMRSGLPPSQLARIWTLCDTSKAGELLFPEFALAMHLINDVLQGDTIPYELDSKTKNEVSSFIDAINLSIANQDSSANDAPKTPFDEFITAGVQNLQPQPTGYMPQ

[2] = target: T3, Pan1p EH2 (96–145/403–713) (S. cerevisiae, UniProt P32521 96-145; P32521 403-713); test: two-hybrid
T3 chain (looked up): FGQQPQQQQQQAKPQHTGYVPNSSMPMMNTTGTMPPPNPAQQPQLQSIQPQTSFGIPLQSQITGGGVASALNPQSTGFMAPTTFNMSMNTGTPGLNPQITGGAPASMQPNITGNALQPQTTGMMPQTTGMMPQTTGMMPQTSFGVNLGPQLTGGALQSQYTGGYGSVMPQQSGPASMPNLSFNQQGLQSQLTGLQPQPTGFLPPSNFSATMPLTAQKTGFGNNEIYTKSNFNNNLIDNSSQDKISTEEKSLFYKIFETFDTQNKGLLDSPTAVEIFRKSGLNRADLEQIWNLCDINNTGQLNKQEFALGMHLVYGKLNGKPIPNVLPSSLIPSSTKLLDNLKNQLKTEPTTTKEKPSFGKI

Pan1p EH2 (544–713) = target: T4, Pan1p EH2 (544–713) (S. cerevisiae, UniProt P32521 544-713); test: two-hybrid
T4 sequence (looked up): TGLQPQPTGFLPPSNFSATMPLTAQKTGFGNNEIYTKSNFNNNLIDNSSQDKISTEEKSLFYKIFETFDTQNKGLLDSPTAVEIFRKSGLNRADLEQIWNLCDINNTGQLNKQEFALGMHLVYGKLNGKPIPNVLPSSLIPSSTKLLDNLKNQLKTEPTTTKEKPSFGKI

[3] = target: T5, Pan1p (S. cerevisiae (endogenous in yeast cells)), P32521; test: co-IP; conditions: remark: other sources report otherwise
T5 chain: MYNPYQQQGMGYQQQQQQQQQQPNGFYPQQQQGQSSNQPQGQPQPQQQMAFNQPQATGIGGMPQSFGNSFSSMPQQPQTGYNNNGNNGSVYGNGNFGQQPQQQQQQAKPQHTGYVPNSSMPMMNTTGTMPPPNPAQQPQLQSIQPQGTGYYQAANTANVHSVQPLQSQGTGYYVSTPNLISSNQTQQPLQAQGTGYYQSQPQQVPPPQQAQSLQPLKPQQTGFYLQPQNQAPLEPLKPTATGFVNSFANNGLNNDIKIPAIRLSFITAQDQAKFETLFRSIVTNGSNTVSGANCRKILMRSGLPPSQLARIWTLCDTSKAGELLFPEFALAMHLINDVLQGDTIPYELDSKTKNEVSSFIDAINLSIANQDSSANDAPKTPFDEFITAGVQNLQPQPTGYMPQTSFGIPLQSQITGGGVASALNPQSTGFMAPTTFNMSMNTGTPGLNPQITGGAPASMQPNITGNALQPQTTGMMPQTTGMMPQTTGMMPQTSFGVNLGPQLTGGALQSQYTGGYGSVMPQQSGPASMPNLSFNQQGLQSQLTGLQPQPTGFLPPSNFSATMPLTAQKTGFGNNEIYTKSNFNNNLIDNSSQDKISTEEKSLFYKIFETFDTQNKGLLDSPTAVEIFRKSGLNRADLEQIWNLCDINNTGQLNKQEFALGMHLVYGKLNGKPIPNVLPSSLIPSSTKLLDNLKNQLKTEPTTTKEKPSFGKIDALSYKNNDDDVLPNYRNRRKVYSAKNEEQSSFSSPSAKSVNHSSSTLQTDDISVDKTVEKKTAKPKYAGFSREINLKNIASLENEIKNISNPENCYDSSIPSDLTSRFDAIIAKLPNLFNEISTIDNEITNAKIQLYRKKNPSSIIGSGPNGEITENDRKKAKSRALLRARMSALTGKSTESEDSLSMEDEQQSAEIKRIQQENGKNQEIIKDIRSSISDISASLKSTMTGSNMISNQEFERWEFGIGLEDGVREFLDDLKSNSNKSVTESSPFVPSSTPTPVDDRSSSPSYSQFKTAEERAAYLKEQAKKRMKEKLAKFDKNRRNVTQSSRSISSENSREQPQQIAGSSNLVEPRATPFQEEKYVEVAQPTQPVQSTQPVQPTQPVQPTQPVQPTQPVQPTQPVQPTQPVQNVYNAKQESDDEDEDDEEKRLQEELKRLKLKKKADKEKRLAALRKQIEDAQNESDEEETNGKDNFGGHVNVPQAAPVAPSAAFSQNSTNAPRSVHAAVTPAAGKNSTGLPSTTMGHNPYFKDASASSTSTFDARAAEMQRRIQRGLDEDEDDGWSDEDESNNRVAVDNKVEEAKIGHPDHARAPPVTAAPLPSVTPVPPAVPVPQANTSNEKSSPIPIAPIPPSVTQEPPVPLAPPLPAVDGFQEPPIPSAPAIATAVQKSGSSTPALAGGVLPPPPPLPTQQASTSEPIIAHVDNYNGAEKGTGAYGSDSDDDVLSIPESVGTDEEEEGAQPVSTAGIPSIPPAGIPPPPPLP

Molecule: yeast clathrin (from UniProt P22137 1-1653; P17891 1-233) (complex)
- percent of Chc1p depleted from the unbound fraction [1]: 50%

B1: yAP180A 24–637 (domain or fragment, S. cerevisiae, UniProt P38856 24-637, looked up)
chain: LDPILLGTSNEEDFYEIVKGLDSRINDTAWTIVYKSLLVVHLMIREGSKDVALRYYSRNLEFFDIENIRGSNGSASGDMRALDRYDNYLKVRCREFGKIKKDYVRDGYRTLKLNSGNYGSSRNKQHSINIALDHVESLEVQIQALIKNKYTQYDLSNELIIFGFKLLIQDLLALYNALNEGIITLLESFFELSHHNAERTLDLYKTFVDLTEHVVRYLKSGKTAGLKIPVIKHITTKLVRSLEEHLIEDDKTHNTFVPVDSSQGSAGAVVAKSTAQERLEQIREQKRILEAQLKNEQVAISPALTTVTAAQSYNPFGTDSSMHTNIPMAVANQTQQIANNPFVSQTQPQVMNTPTAHTEPANLNVPEYAAVQHTVNFNPVQDAGVSAQQTGYYSINNHLTPTFTGAGFGGYSVSQDTTAASNQQVSHSQTGSNNPFALHNAATIATGNPAHENVLNNPFSRPNFDEQNTNMPLQQQIISNPFQNQTYNQQQFQQQKMPLSSINSVMTTPTSMQGSMNIPQRFDKMEFQAHYTQNHLQQQQQQQQQQQQQQQQQPQQGYYVPATAGANPVTNITGTVQPQNFPFYPQQQPQPEQSQTQQPVLGNQYANNLNLIDM
- units β-galactosidase activity (Pan1p EH1–2 (96–713)): 78 ± 2 Units β-galactosidase activity
- units β-galactosidase activity (Pan1p EH1 (96–403)): 18 ± 7 Units β-galactosidase activity
- units β-galactosidase activity [2]: 23 ± 4 Units β-galactosidase activity
- units β-galactosidase activity (Pan1p EH2 (544–713)): 2 ± 0.4 Units β-galactosidase activity

B3: yAP180A, P38856 1-637 (natural protein)
chain: MTTYFKLVKGATKIKSAPPKQKYLDPILLGTSNEEDFYEIVKGLDSRINDTAWTIVYKSLLVVHLMIREGSKDVALRYYSRNLEFFDIENIRGSNGSASGDMRALDRYDNYLKVRCREFGKIKKDYVRDGYRTLKLNSGNYGSSRNKQHSINIALDHVESLEVQIQALIKNKYTQYDLSNELIIFGFKLLIQDLLALYNALNEGIITLLESFFELSHHNAERTLDLYKTFVDLTEHVVRYLKSGKTAGLKIPVIKHITTKLVRSLEEHLIEDDKTHNTFVPVDSSQGSAGAVVAKSTAQERLEQIREQKRILEAQLKNEQVAISPALTTVTAAQSYNPFGTDSSMHTNIPMAVANQTQQIANNPFVSQTQPQVMNTPTAHTEPANLNVPEYAAVQHTVNFNPVQDAGVSAQQTGYYSINNHLTPTFTGAGFGGYSVSQDTTAASNQQVSHSQTGSNNPFALHNAATIATGNPAHENVLNNPFSRPNFDEQNTNMPLQQQIISNPFQNQTYNQQQFQQQKMPLSSINSVMTTPTSMQGSMNIPQRFDKMEFQAHYTQNHLQQQQQQQQQQQQQQQQQPQQGYYVPATAGANPVTNITGTVQPQNFPFYPQQQPQPEQSQTQQPVLGNQYANNLNLIDM
- percent of yAP180A coimmunoprecipitated [3]: 3% and 5%

The remaining lines, values ahead:

- units β-galactosidase activity (Pan1p EH1–2 (96–713)): 362 ± 67 Units β-galactosidase activity
- units β-galactosidase activity (Pan1p EH1 (96–403)): 70 ± 9 Units β-galactosidase activity
- units β-galactosidase activity [2]: 342 ± 15 Units β-galactosidase activity
- units β-galactosidase activity (Pan1p EH2 (544–713)): 158 ± 15 Units β-galactosidase activity
B2: yAP180B 429–568 (domain or fragment, S. cerevisiae, UniProt P53309 429-568, looked up)
chain: GGYTTTENNAIMTGTLDPTKTGSNNPFSLENIAREQQQQNFQNSPNPFTLQQAQTTPILAHSQTGNPFQAQNVVTSPMGTYMTNPVAGQLQYASTGAQQQPQMMQGQQTGYVMVPTAFVPINQQQQQQQHQQENPNLIDI

- units β-galactosidase activity (Pan1p EH1–2 (96–713)): 117 ± 75 Units β-galactosidase activity
- units β-galactosidase activity (Pan1p EH1 (96–403)): 6 ± 1 Units β-galactosidase activity
- units β-galactosidase activity [2]: 33 ± 4 Units β-galactosidase activity
- units β-galactosidase activity (Pan1p EH2 (544–713)): 4 ± 1 Units β-galactosidase activity
B4: yAP180A 432–637 (domain or fragment, S. cerevisiae, UniProt P38856 432-637, looked up)
chain: GGYSVSQDTTAASNQQVSHSQTGSNNPFALHNAATIATGNPAHENVLNNPFSRPNFDEQNTNMPLQQQIISNPFQNQTYNQQQFQQQKMPLSSINSVMTTPTSMQGSMNIPQRFDKMEFQAHYTQNHLQQQQQQQQQQQQQQQQQPQQGYYVPATAGANPVTNITGTVQPQNFPFYPQQQPQPEQSQTQQPVLGNQYANNLNLIDM
